Assay results published in the supplement of paper PMC9170038.

System: MS2 coat protein
Assay: apparent KD of MS2 coat protein; designed switch direction (-1 OFF switch, 1 ON switch): -1; higher = weaker reporter binding
Summary of the method: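 Designed RNA switches sharing common flanks were transcribed on Illumina chips by stalled E. coli RNA polymerase. They were titrated with SNAP-549-labelled MS2 coat protein, from 0.7 or 1.5 nM doubling to 3 µM, in Tris-HCl pH 7.5 buffer with KCl, MgCl2, BSA, DTT, tRNA and Tween-20. Titrations ran without input, with 200 uM small-molecule ligand, or with an oligonucleotide input. The apparent KD of each design is the median over its clusters, after curve-fitting of normalised cluster fluorescence.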

[1] = Eterna round: R95, input ligand: FMN 200 uM
[2] = Eterna round: R95, input ligand: microRNA oligo, concentration not stated
[3] = Eterna round: R95, input ligand: none
[4] = input ligand: microRNA oligo, concentration not stated

| Sequence | apparent KD of MS2 coat protein (input ligand: FMN 200 uM) [µM] | apparent KD of MS2 coat protein (input ligand: none) [µM] | other results |
| --- | --- | --- | --- |
| AAGUAGGAUGUUAGGAUAUCGCCCUCGCAAUAGGGCGAGAAGGGACAUGAGGAUCACCCAUGUAGGCGAUAGAA [Laedesed] (Eterna round: R97, puzzle: Brourd's mod of Exclusion 4) | 0.0293 | 0.0169 |  |
| UACGGGUCAGGAUAUGCGAGAGAUUGGGAAAUAGGAAGGUAGCAGAAGGGACAUGAGGAUCACCCAUGUGAAGC [JR_Exclu4_Sub097] (puzzle: Exclusion 4) |  |  | apparent KD of MS2 coat protein [1]: 0.0322 µM; apparent KD of MS2 coat protein [2]: 0.0259 µM; apparent KD of MS2 coat protein [3]: 0.0288 µM |
| AGAUCACAUGAGGAUCACCCAUGUGAGGAUAUGGACUGAAGAGCUUCGGCUCUUCAGUCCAGAAGGCACAAUGA [EX1 #43] (Eterna round: R97, puzzle: Exclusion 1) | 0.0407 | 0.0289 |  |
| UACAUGAGGAUCACCCAUGUUUUGUCGUGUAUGGUAUUUAUCUAGGAUAUCAUUUGAUUUAGUUAUGAGAAGGAGAAUAUUAAU [JMF's solution 86] (Eterna round: R96, puzzle: Exclusion NG 3) | 0.0336 | 0.0299 | apparent KD of MS2 coat protein [4]: 0.0172 µM |
| GGUAGUAUGAGUAGUCCUCAUUGAAGAGAUUGGUAAGAUACAUGAGGAUCACCCAUGUUUGAACAAGCUUUUGCUCU [JR_Sv3TOV2_Sub007] (puzzle: Sensor v3, turn-off variant 2) |  |  | apparent KD of MS2 coat protein [1]: 0.0871 µM; apparent KD of MS2 coat protein [2]: 0.0259 µM; apparent KD of MS2 coat protein [3]: 0.0828 µM |
| CAUAUGUUAGGAUAUGCACAGAUCUCCGAAAGGAGAUCUGUGCAGAAGGAACAUGAGGAUCACCCAUGUUGAUG [Mod of Brourd 17 - Jieux - Exclusion 4] (Eterna round: R97, puzzle: Exclusion 4) | 0.176 | 0.0342 |  |
| ACUGGUGCAGGAUAUACAUUCGUGCUUCGGCACGUAAGAUCACAUGAGGAUCACCCAUGUAGAAGGGCACCAGU [E2/5-D2] (Eterna round: R97, puzzle: Exclusion 2) | 0.642 | 0.0816 |  |
| AGCCAAGCAGGAUAUGCCCGUAAUAACAUGAGGAUCACCCAUGUGACCGAUUUAUGUUCUGCAGAAGGGCUUGGAA [LRO-Excl5-12-mod of Erxesoan mod by Eli Fisker] (Eterna round: R97, puzzle: Exclusion 5) | 0.0913 | 0.0248 |  |
| AGAGUACAUGUGAGGAUAUCUGGAGUGUCCCACGAAGAGAAGGCACAUGAGGAUCACCCAUGUCGUCCCGGUUU [Eternabot (L1) Solution 28] (Eterna round: R97, puzzle: Brourd's mod of Exclusion 4) | 0.0225 | 0.0171 |  |
| GUCGGGCGUGUCAGGAUAUGGUAGAGUGGUCGCGGCCAGAAGGGACAUGAGGAUCACCCAUGUUCCGUGGGCAG [BmEX4 C.11] (Eterna round: R97, puzzle: Brourd's mod of Exclusion 4) | 0.019 | 0.0199 |  |
| CUUUUGUGAGGAUAUUUGUAGUAAAUAAAUAAAAUUACUACUGAGAAGGCACAUGAGGAUCACCCAUGUUCCUC [salish99_ex4_r3_042] (puzzle: Exclusion 4) |  |  | apparent KD of MS2 coat protein [2]: 0.0277 µM |
| GCUUGUAGAGGAUAUACAAGGGCCUUAGCGGAAAACUCCGCACAUGAGGAUCACCCAUGUAGAAGGCUACCACC [Isrianqu] (puzzle: Exclusion 2) |  |  | apparent KD of MS2 coat protein [2]: 0.0151 µM |
| AAGGUGUUAGGAUAUCGAAGGUUGUGGCAGGCGGGAAUUUGCGAGAAGGAACAUGAGGAUCACCCAUGUAAAAU [JR_Exclu4_Sub042] (puzzle: Exclusion 4) |  |  | apparent KD of MS2 coat protein [2]: 0.025 µM |
| UAAAAGACAGGAUAUACUAACAACGACUUGAGGAUCACCCAAGUGGUAAGAGUCGAUCAUGUAGAAGGGUUAAAAC [Atsoce] (Eterna round: R97, puzzle: Exclusion 5) | 0.0743 | 0.028 |  |
| CAGCUGUGAGGAUAUACAUGAGGAUCACCCAUGUUAAGGAAGUGGUGUAUAUUGUAGUGUAGAAGGCACUUGUC [JR_Ex3_Sub026] (Eterna round: R97, puzzle: Exclusion 3) | 0.234 | 0.123 |  |
| AGGGCACGAGGAUAUGUGAAACUGGACUUGAGGAUCACCCAAGUCGUCUUCGUGUCCAAAGCAGAAGGCGUGGCCA [Zaesce] (Eterna round: R97, puzzle: Exclusion 5) | 0.0138 | 0.0104 |  |
| UCCUAACAUGAGGAUCACCCAUGUCAGGAUAUCUACGUCAGAACCACGUAUGUAGGCGAGAGAAGGGACAGAGG [EX1 C.14] (Eterna round: R97, puzzle: Exclusion 1) | 0.021 | 0.0174 |  |
| UAACAUGUCUGAGGAUAUCUGCACGAUUAGUGCAGAGAAGGCAGAACAUGAGGAUCACCCAUGUAGAUCAUUAAUUAAUUAAUU [ENG1/7-B1] (Eterna round: R96, puzzle: Exclusion NG 1) | 0.712 | 0.344 | apparent KD of MS2 coat protein [4]: 0.288 µM |

| Sequence | apparent KD of MS2 coat protein (input ligand: FMN 200 uM) [µM] | apparent KD of MS2 coat protein (input ligand: none) [µM] | other results |
| --- | --- | --- | --- |
| GUUGCGUUUGUGAGGAUAUGCUGUUCCUUGGUUCGGCAGAAGGCACAUGAGGAUCACCCAUGUGGUGUCGUUCC [salish99_Bmod_ex4_053] (puzzle: Brourd's mod of Exclusion 4) |  |  | apparent KD of MS2 coat protein [2]: 0.0146 µM |
| CUCCGGCGUGUAGGAUAUGGAUCCGAUUAGGAUCCAGAAGGACAUGAGGAUCACCCAUGUACAUGUAAACAGUCAUCACCGGAC [salish99_ExNG1_r04_204] (Eterna round: R96, puzzle: Exclusion NG 1) | 0.155 | 0.0187 | apparent KD of MS2 coat protein [4]: 0.0104 µM |
| AGCAAGCUUUUAAGAUCCUACAUGAGGAUCACCCAUGUGCUCGUCUUGUAACGUACUGUGACGAAAGUCACGGUACG [JL TOV1 3.31] (Eterna round: R97, puzzle: Sensor, turn-off variant 1) | 0.374 | 0.506 |  |
| UUUUAACAUGAGGAUCACCCAUGUGAGGAUAUCGUAUUUUAUAUUAAUAUUAAUAAAACGAGAAGGCACAUUUU [JMF 9] (puzzle: Exclusion 1) |  |  | apparent KD of MS2 coat protein [1]: 0.0284 µM; apparent KD of MS2 coat protein [2]: 0.0254 µM; apparent KD of MS2 coat protein [3]: 0.0295 µM |
| GCCUCACUUGAGGAUCACCCAAGUCAGGAUAUUCACGGAACUACGUAGUAGUUCGGCCGGAGAAGGGAUUCGGG [Qubexe] (Eterna round: R97, puzzle: Exclusion 1) | 0.0648 | 0.0418 |  |
| CUGCUCCGUGUAGGAUAUCCGUGCAACCAAUACGGAGAAGGACAUGAGGAUCACCCAUGUAUGUUAUUAUCACGUGAAGCGUCC [Design 24] (Eterna round: R96, puzzle: Exclusion NG 1) | 0.0231 | 0.0243 | apparent KD of MS2 coat protein [4]: 0.017 µM |
| GCUAGAGCAGGAUAUCUAAAUCCUCACAUGAGGAUCACCCAUGUAGUCGAAAGACUAAGAAGAGAAGGGCUCUAGC [Omei Ex5 E19] (Eterna round: R97, puzzle: Exclusion 5) | 0.543 | 1.29 |  |
| AACAGGUCAGGAUAUACAUGAGGAUCACCCAUGUAGACUUCUAGUCUAUCGUGACUGUGUAGAAGGGACCUGAA [Exclusion 3 (MOD of #98 Marzena11)] (Eterna round: R97, puzzle: Exclusion 3) | 0.146 | 0.0401 |  |
| GACUGCCGAGGAUAUACAUGAGGAUCACCCAUGUGCUUCAGUAUCGAAAGAUGCAUGGGUAGAAGGCGGUAGUC [LRO-Excl3-10] (puzzle: Exclusion 3) |  |  | apparent KD of MS2 coat protein [2]: 0.172 µM |
| CUGUGCACGCUGCGAUCCUACAUGAGGAUCACCCAUGUGGUCUGGUGGCGUGGGUCACCGGACUUGGCUCGUCUUGC [salish99_S_TOV1_R5_071] (Eterna round: R97, puzzle: Sensor, turn-off variant 1) | 0.0314 | 0.0316 |  |
| GGUACUCAAAGAGUACCAAUACGAACAUGAGGAUCACCCAUGUAGGAUAUGCUACUCAAAGAGUAGCAGAAGGACAUGUGCCUU [Far Half Aptamer v5] (Eterna round: R96, puzzle: Exclusion NG 3) | 0.254 | 0.0295 | apparent KD of MS2 coat protein [4]: 0.0253 µM |
| CAGUACAGAGGAUAUACAUGAGGAUCACCCAUGUGUUUCAGGUACGAGAGUACCGAGUGUAGAAGGCUGUACUG [jl-ex3-4.28 salish99 mod] (Eterna round: R97, puzzle: Exclusion 3) | 0.244 | 0.0381 |  |
| GAUGUGAGACAGGAUAUCCACGGGAUAGUCUGAGGAGAAGGGUCUACAUGAGGAUCACCCAUGUGCGUCCCUCA [EX6 B.8] (Eterna round: R97, puzzle: Exclusion 6) | 0.0224 | 0.0155 |  |
| GAAAACGAAGAGGAUAUAUGAUAUCAAAGCUUCAUAGAAGGCUUCACAUGAGGAUCACCCAUGUGAUCUUCAAU [Mat - Exclusion 6 - JL Mod - D23] (Eterna round: R97, puzzle: Exclusion 6) | 0.244 | 0.0416 |  |
| UAUGGUUAAGUCAGGAUAUACAAACAGAAAUCUGAGUAGAAGGGACAUGAGGAUCACCCAUGUAUGGUAGUGUU [Ex4 #56] (Eterna round: R97, puzzle: Brourd's mod of Exclusion 4) | 0.0486 | 0.0446 |  |
| AAAAAACAAGGAUAUACGAAGGAGGGUUAUCUUAAUUUUUGACAUGAGGAUCACCCAUGUAGAAGGUGUUAAAA [JR_Exclusion2_Sub011] (puzzle: Exclusion 2) |  |  | apparent KD of MS2 coat protein [1]: 0.571 µM; apparent KD of MS2 coat protein [2]: 0.202 µM; apparent KD of MS2 coat protein [3]: 0.156 µM |
| GCUGCGCGAGGAUAUGCGGUUCGCGCGGUGGCCGCUGGCGGACAUGAGGAUCACCCAUGUAGAAGGCGUGCGGG [Apr-15 SS2-60] (puzzle: Exclusion 2) |  |  | apparent KD of MS2 coat protein [2]: 0.0117 µM |
